Measurements: article PMC5557676, “Structural Characterization of Acidic M17 Leucine Aminopeptidases from the TriTryps and Evaluation of Their Role in Nutrient Starvation in Trypanosoma brucei” (mSphere, 2017)
Values joined by “and” are separate entries in the source; they are usually repeats but may differ in a detail not shown here. Identical values can stand only once.

What was measured:
TbLAP-A [1] = molecular target: T1, TbLAP-A (Trypanosoma brucei, UniProt Q385B0); assay: native gel zymography, AMC fluorescence; type: biochemical; conditions: 7.5 µM substrate, 50 mM Tris pH 8.0, 100 mM KCl, 1 mM MnCl2, 37 °C, 10 min
T1 construct: gene Tb11.02.4440; full length, E. coli BL21(DE3); N-terminal His6 tag, HRV 3C-cleaved or with a noncleavable His tag; homohexamer; N-terminal domain aa 2-197, C-terminal domain aa 215-521
T1 sequence (Q385B0 1-521): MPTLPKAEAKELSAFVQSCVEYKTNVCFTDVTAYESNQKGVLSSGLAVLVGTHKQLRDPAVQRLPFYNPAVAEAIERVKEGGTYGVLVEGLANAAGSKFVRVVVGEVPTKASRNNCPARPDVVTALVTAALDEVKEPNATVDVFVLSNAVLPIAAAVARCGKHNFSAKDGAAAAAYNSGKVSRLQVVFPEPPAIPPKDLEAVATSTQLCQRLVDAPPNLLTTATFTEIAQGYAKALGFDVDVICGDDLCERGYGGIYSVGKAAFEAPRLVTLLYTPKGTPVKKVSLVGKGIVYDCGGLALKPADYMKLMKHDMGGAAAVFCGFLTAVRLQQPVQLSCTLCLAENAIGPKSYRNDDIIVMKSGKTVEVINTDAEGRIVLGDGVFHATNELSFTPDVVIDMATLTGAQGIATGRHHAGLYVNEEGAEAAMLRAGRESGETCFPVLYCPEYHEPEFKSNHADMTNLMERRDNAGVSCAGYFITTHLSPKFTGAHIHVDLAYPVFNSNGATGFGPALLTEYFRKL

TbLAP-A [2] = molecular target: T1, TbLAP-A; assay: X-ray crystal structure; type: binding; conditions: Mn2+ in both metal sites, active site
[3] = molecular target: Leishmania major acidic M17 leucine aminopeptidase (LmLAP-A) (Leishmania major (Friedlin)); assay: crystal structure; crystals grown at 20°C by sitting- and hanging-drop vapor diffusion; apo, holo (Mn2+) and inhibitor-bound forms; homohexamer in the crystal
[4] = molecular target: Leishmania major acidic M17 leucine aminopeptidase (LmLAP-A) (Leishmania major (Friedlin)); assay: SEC-MALS; SEC-MALLS on Superdex 200 10/300; 10 mM Tris pH 8.0, 200 mM NaCl, 1 mM DTT; 0.1, 0.5, 1.0 and 3.0 mg/ml (TbLAP-A also 5 mg/ml), incubated at least 3 h at room temperature
[5] = molecular target: Trypanosoma brucei acidic M17 leucine aminopeptidase (TbLAP-A) (Trypanosoma brucei (Lister427)); assay: crystal structure; crystals grown at 20°C by sitting- and hanging-drop vapor diffusion; apo, holo (Mn2+) and inhibitor-bound forms; homohexamer in the crystal
[6] = molecular target: Trypanosoma brucei acidic M17 leucine aminopeptidase (TbLAP-A) (Trypanosoma brucei (Lister427)); assay: SEC-MALS; SEC-MALLS on Superdex 200 10/300; 10 mM Tris pH 8.0, 200 mM NaCl, 1 mM DTT; 0.1, 0.5, 1.0 and 3.0 mg/ml (TbLAP-A also 5 mg/ml), incubated at least 3 h at room temperature
[7] = molecular target: Trypanosoma brucei acidic M17 leucine aminopeptidase (TbLAP-A) (Trypanosoma brucei (Lister427)); assay: as above; remark: listed apart in the source
[8] = molecular target: the molecule itself; assay: crystal structure; crystals grown at 20°C by sitting- and hanging-drop vapor diffusion; apo, holo (Mn2+) and inhibitor-bound forms; homohexamer in the crystal
[9] = molecular target: the molecule itself; assay: SEC-MALS; SEC-MALLS on Superdex 200 10/300; 10 mM Tris pH 8.0, 200 mM NaCl, 1 mM DTT; 0.1, 0.5, 1.0 and 3.0 mg/ml (TbLAP-A also 5 mg/ml), incubated at least 3 h at room temperature

Molecule: Cc1cc(=O)oc2cc(NC(=O)[C@@H](N)CC(C)C)ccc12 [Leu-AMC]
- native gel zymography, AMC fluorescence (TbLAP-A [1]): All three LAP-As were active against Leu-AMC

Molecule: CCCCC[C@H](CC(=O)NO)C(=O)N[C@H](C(=O)N1CCC[C@H]1CO)C(C)C [actinonin]
- X-ray crystal structure (TbLAP-A [2]; less than full occupancy, six chains): The TbLAP-A--actinonin complex had six molecules in the asymmetric unit

Molecule: CC(C)C[C@H](NC(=O)[C@@H](O)[C@H](N)Cc1ccccc1)C(=O)O [bestatin]
- X-ray crystal structure (TbLAP-A [2]; bicarbonate bound, 12 chains): TbLAP-A was cocrystallized with the inhibitor bestatin.

Molecule: Leishmania major acidic M17 leucine aminopeptidase (LmLAP-A) (enzyme)
- stoichiometry N [3]: 6
- stoichiometry N [4]: 6 and 3

Molecule: Trypanosoma brucei acidic M17 leucine aminopeptidase (TbLAP-A) (enzyme)
- stoichiometry N [5]: 6
- stoichiometry N [6]: 6
- stoichiometry N [7]: 3

B1: Trypanosoma cruzi acidic M17 leucine aminopeptidase (TcLAP-A) (enzyme)
chain: MNRPPATDSGASEFVRSCVNFKTNVEFTDVDAYKKTHTAGLASTFVVILGTHAQLREDALKELPFYCPAVAEAIQRVKKGETYAVLAEGVKNEANERFVRVLVGEVPSEASRTNCSARPDVVVSLLSAALEEIKGPETKVDVFVCSTAALAIAVAAARSAKRNFTAKEGLAARGYCDNCVRLTVVFPTAPNPSPSELVVVATSTQLCQRLVDAPTNLLNTATFAEVAQSYAKELGCAVDVICGEELRERGYGGIYSVGKCAAEAPRLVTLSYKPKDETRKKVALVGKGIVYDSGGLSLKPTNFMTGMKRDMGGAAAVFCGFLTAVRLQMPIELSCTLCLAENAIGPDAYRNDDILTLKSGKTVEVNNTDAEGRLVLGDGVFHATHEISFKPDVLVDMATLTGAQGIATGHRHAGIFVNDEEEELSFLKAGRVSGETCFPVLYCPEYHVTEFRSPVADMRNSVKQVNNASVSCAGHFVANHLSPDFKGKHIHVDMAFPAFENDKATGFGPALLMEYLRNLR
- stoichiometry N [8]: 6
- stoichiometry N [9]: 3
